B1: library; a variant is named by its letters at N, in order (parent)
chain: GAGACCGCAACTGAAAAGTTGTGGNNNNNATAGTGAGTCGCTGCCTGCAAAGACACAACT

± gives the standard deviation of the averaged measurements.

Variants of B1 are the subject of the data set. Briefly: ligation selection enrichment (abundance after / before one-round selection) (fold); higher = more template-directed ligation activity. As to conditions: with T7Psub CACGGAUGCUAAUACGACUCACUAUA; MgCl2 25 mM; 42 °C; 4 h; pH 8.5. The method, then:
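Lib-N5 ligase ribozyme library: five randomized core nucleotides (including the GGA motif of N8-1) within the fixed N8-1 ribozyme flanks, transcribed by T7 RNA polymerase with a 5'-triphosphate. The library (0.75 uM) was reacted with substrate T7Psub (6 uM) in 50 mM EPPS pH 8.5 with 25 mM MgCl2 at 42 C for 4 h. Ligated products were PAGE-purified, reverse transcribed and MiSeq sequenced; enrichment = abundance after selection / abundance before selection, with two independent replicates. The full transcript is built from the printed template flanks.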
Regarding TCGAC, the ligation selection enrichment was 1.74 ± 0.36.

Take TCGAA: the ligation selection enrichment amounted to 0.975 ± 0.19.

TCGAT: the ligation selection enrichment was found to be 13.3 ± 3.8.

For the variant TCGAG, the ligation selection enrichment came out at 0.7035 ± 0.0067.

For TCTCC, the ligation selection enrichment turned out to be 0.267 ± 0.12.

In the case of TCTCG, the ligation selection enrichment was found to be 0.368 ± 0.12.

Regarding TCGCG, the ligation selection enrichment was 0.485 ± 0.036.

Regarding TCGCA, the ligation selection enrichment turned out to be 0.269 ± 0.054.

Regarding TCGCC, the ligation selection enrichment came to 0.155 ± 0.028.

For TCGCT, the ligation selection enrichment came to 0.299 ± 0.075.

As for TCACT, the ligation selection enrichment was found to be 0.427 ± 0.28.

Take TCACG: the ligation selection enrichment is 0.341 ± 0.018.

With TCACA, the ligation selection enrichment was 0.115 ± 0.057.

Regarding TCACC, the ligation selection enrichment stood at 0.159 ± 0.0071.

GCTCG: the ligation selection enrichment is 0.533 ± 0.037.

Turning to GCTCT, the ligation selection enrichment is 0.165 ± 0.064.

Consider GCTCC, for which the ligation selection enrichment stood at 0.301 ± 0.0054.

As to GCTCA, the ligation selection enrichment came out at 0.244 ± 0.1.

On to CCGTT, for which the ligation selection enrichment was found to be 0.149 ± 0.04.

With CCGTG, the ligation selection enrichment came out at 0.111 ± 0.0037.

In the case of CCGTA, the ligation selection enrichment is 0.213 ± 0.013.

Consider CCGTC, for which the ligation selection enrichment came out at 0.178 ± 0.022.

In the case of GCCGC, the ligation selection enrichment is 0.205 ± 0.036.

GCCGT: the ligation selection enrichment came out at 0.214 ± 0.082.

For the variant GCCGG, the ligation selection enrichment turned out to be 0.313 ± 0.024.

Take GCCGA: the ligation selection enrichment amounted to 1.35 ± 0.035.

For GCGAC, the ligation selection enrichment was determined as 1.92 ± 0.12.

GCGAG: the ligation selection enrichment turned out to be 1.37 ± 0.06.

Consider GCGAA, for which the ligation selection enrichment came to 1.35 ± 0.24.

Take GCGAT: the ligation selection enrichment amounted to 21.9 ± 4.1.

For the variant GCTGG, the ligation selection enrichment was 0.462 ± 0.073.

As to GCTGT, the ligation selection enrichment was 0.15 ± 0.068.

Take GCTGA: the ligation selection enrichment amounted to 0.315 ± 0.015.

With GCTGC, the ligation selection enrichment was determined as 0.1333 ± 0.00076.

For TATGT, the ligation selection enrichment came out at 0.135 ± 0.031.

On to TATGC, for which the ligation selection enrichment was 0.29 ± 0.026.

TATGA: the ligation selection enrichment came out at 2.32 ± 0.16.

Take TATGG: the ligation selection enrichment was 0.616 ± 0.093.

As for ACGGA, the ligation selection enrichment came out at 0.204 ± 0.033.

Turning to ACGGG, the ligation selection enrichment came out at 0.165 ± 0.012.

As to ACGGT, the ligation selection enrichment stood at 0.169 ± 0.025.

As to ACGGC, the ligation selection enrichment worked out at 0.122 ± 0.01.

Take CCGAG: the ligation selection enrichment was 0.853 ± 0.037.

For CCGAT, the ligation selection enrichment turned out to be 15.8 ± 4.6.

Turning to CCGAC, the ligation selection enrichment stood at 1.37 ± 0.061.

Consider CCGAA, for which the ligation selection enrichment stood at 0.831 ± 0.069.

Regarding AGACG, the ligation selection enrichment came to 0.532 ± 0.039.

With AGACT, the ligation selection enrichment amounted to 0.736 ± 0.21.

Take AGACA: the ligation selection enrichment turned out to be 0.206 ± 0.011.

Consider AGACC, for which the ligation selection enrichment came to 0.172 ± 0.011.

For TCCAG, the ligation selection enrichment was 0.128 ± 0.027.

Regarding TCCAT, the ligation selection enrichment stood at 0.303 ± 0.096.

For TCCAA, the ligation selection enrichment worked out at 0.0717 ± 0.015.

Turning to TCCAC, the ligation selection enrichment was 0.118 ± 0.043.

As to ACTAG, the ligation selection enrichment came out at 0.403 ± 0.037.

In the case of ACTAA, the ligation selection enrichment worked out at 0.168 ± 0.031.

Consider ACTAC, for which the ligation selection enrichment was 0.128 ± 0.011.

For ACTAT, the ligation selection enrichment is 0.119 ± 0.05.

In the case of CCGGG, the ligation selection enrichment worked out at 0.244 ± 0.014.

Consider CCGGT, for which the ligation selection enrichment is 0.152 ± 0.021.

Turning to CCGGA, the ligation selection enrichment was found to be 0.278 ± 0.019.

With CCGGC, the ligation selection enrichment was 0.1797 ± 0.00074.

For the variant AATGA, the ligation selection enrichment came to 0.528 ± 0.046.

With AATGC, the ligation selection enrichment is 0.198 ± 0.015.

In the case of AATGG, the ligation selection enrichment amounted to 0.467 ± 0.097.

AATGT: the ligation selection enrichment was determined as 0.153 ± 0.076.

Turning to AATTG, the ligation selection enrichment amounted to 1.46 ± 0.055.

AATTC: the ligation selection enrichment is 0.201 ± 0.075.

Consider AATTA, for which the ligation selection enrichment was 0.421 ± 0.03.

As for AATTT, the ligation selection enrichment was 0.624 ± 0.11.

Regarding GCATG, the ligation selection enrichment came to 0.335 ± 0.012.

Turning to GCATT, the ligation selection enrichment worked out at 0.257 ± 0.043.

In the case of GCATC, the ligation selection enrichment is 0.168 ± 0.016.

For GCATA, the ligation selection enrichment came out at 0.204 ± 0.0065.

As to TCAGT, the ligation selection enrichment was determined as 0.161 ± 0.087.

With TCAGA, the ligation selection enrichment was determined as 0.474 ± 0.043.

On to TCAGG, for which the ligation selection enrichment turned out to be 0.337 ± 0.062.

On to TCAGC, for which the ligation selection enrichment is 0.153 ± 0.017.

In the case of CCTTG, the ligation selection enrichment was 0.874 ± 0.15.

For the variant CCTTT, the ligation selection enrichment was determined as 0.455 ± 0.12.

Consider CCTTA, for which the ligation selection enrichment came to 0.159 ± 0.004.

For the variant CCTTC, the ligation selection enrichment stood at 0.171 ± 0.02.

For ACACG, the ligation selection enrichment was 0.497 ± 0.035.

Source of the values: the supplement of paper PMC10219994.
